Data: publication PMC9605926, “Safety of [^177Lu]Lu-NeoB treatment: a preclinical study characterizing absorbed dose and acute, early, and late organ toxicity” (European Journal of Nuclear Medicine and Molecular Imaging, 2022)

Test: Dosimetry: absorbed organ dose from biodistribution data (MIRD scheme, RADAR mouse phantom)
Type: in vivo
Description: Data obtained during the in vivo biodistribution studies were used to calculate the absorbed dose for each organ according to the MIRD-scheme. The time integrated activity concentration coefficients were determined by fitting exponential curves to the activity concentration data points at 1, 4, 24, 48, 96, and 168 h p.i. and integrating these curves over time. The least squares fitting analysis was performed with GraphPad Prism software. The S-values for lutetium-177 were based on the 24 g realistic RADAR mouse phantom. The standard organ weights of this model were used to convert from activity concentration to activity. With this model, the absorbed dose in most organs could be calculated. S-values for organs not included in the mouse model, such as adrenal glands and prostate, were determined with the spherical node model within the Olinda/EXM code.
The absorbed doses determined from the biodistribution assay were extrapolated to the dose the animals received during the radiotoxicity study. Here, the animals received 3 consecutive injections with a 7-day interval.

[1] = female, 3× 120 MBq/1200 pmol, extrapolated cumulative
[2] = male, 3× 40 MBq/400 pmol, extrapolated cumulative
[3] = male, 3× 80 MBq/800 pmol, extrapolated cumulative
[4] = male, 3× 120 MBq/1200 pmol, extrapolated cumulative

## CC(C)CC(CC(C)C)NC(=O)[C@H](Cc1cnc[nH]1)NC(=O)CNC(=O)[C@@H](NC(=O)[C@H](C)NC(=O)[C@H](Cc1c[nH]c2ccccc12)NC(=O)[C@H](CCC(N)=O)NC(=O)[C@@H](Cc1ccccc1)NC(=O)COCC(=O)Nc1ccc(CNC(=O)CN2CCN(CC(=O)O)CCN(CC(=O)O)CCN(CC(=O)O)CC2)cc1)C(C)C [[^177Lu]Lu-NeoB, metal not drawn]
female, 1× 120 MBq/1200 pmol
  Absorbed dose adrenal glands: 0.82 Gy
  Absorbed dose brain: 0.12 Gy
  Absorbed dose colon wall: 1.81 Gy
  Absorbed dose heart wall: 0.42 Gy
  Absorbed dose kidneys: 5.24 Gy
  Absorbed dose liver: 4.37 Gy
  Absorbed dose lungs: 0.62 Gy
  Absorbed dose mammary fat pad: 1.11 Gy
  Absorbed dose osteogenic cells: 0.07 Gy
  Absorbed dose ovaries: 0.53 Gy
  Absorbed dose pancreas: 3.30 Gy
  Absorbed dose small intestine: 1.80 Gy
  Absorbed dose spleen: 0.68 Gy
  Absorbed dose stomach wall: 1.31 Gy
  Absorbed dose total body: 0.65 Gy
  Absorbed dose urinary bladder: 0.05 Gy
[1]
  Absorbed dose adrenal glands: 2.47 Gy
  Absorbed dose brain: 0.35 Gy
  Absorbed dose colon wall: 5.43 Gy
  Absorbed dose heart wall: 1.27 Gy
  Absorbed dose kidneys: 15.71 Gy
  Absorbed dose liver: 13.11 Gy
  Absorbed dose lungs: 1.87 Gy
  Absorbed dose mammary fat pad: 3.34 Gy
  Absorbed dose osteogenic cells: 0.21 Gy
  Absorbed dose ovaries: 1.60 Gy
  Absorbed dose pancreas: 9.89 Gy
  Absorbed dose small intestine: 5.40 Gy
  Absorbed dose spleen: 2.05 Gy
  Absorbed dose stomach wall: 3.94 Gy
  Absorbed dose total body: 1.95 Gy
  Absorbed dose urinary bladder: 0.15 Gy
male, 1× 40 MBq/400 pmol
  Absorbed dose adrenal glands: 0.58 Gy
  Absorbed dose brain: 0.05 Gy
  Absorbed dose colon wall: 0.81 Gy
  Absorbed dose heart wall: 0.25 Gy
  Absorbed dose kidneys: 2.00 Gy
  Absorbed dose liver: 2.11 Gy
  Absorbed dose lungs: 0.35 Gy
  Absorbed dose mammary fat pad: 0.27 Gy
  Absorbed dose osteogenic cells: 0.03 Gy
  Absorbed dose pancreas: 2.23 Gy
  Absorbed dose prostate gland: 0.35 Gy
  Absorbed dose small intestine: 0.80 Gy
  Absorbed dose spleen: 0.50 Gy
  Absorbed dose stomach wall: 1.50 Gy
  Absorbed dose testes: 0.02 Gy
  Absorbed dose total body: 0.31 Gy
  Absorbed dose urinary bladder: 0.02 Gy
male, 1× 80 MBq/800 pmol
  Absorbed dose adrenal glands: 0.54 Gy
  Absorbed dose brain: 0.12 Gy
  Absorbed dose colon wall: 1.21 Gy
  Absorbed dose heart wall: 0.46 Gy
  Absorbed dose kidneys: 3.25 Gy
  Absorbed dose liver: 3.28 Gy
  Absorbed dose lungs: 0.87 Gy
  Absorbed dose mammary fat pad: 0.23 Gy
  Absorbed dose osteogenic cells: 0.06 Gy
  Absorbed dose pancreas: 2.31 Gy
  Absorbed dose prostate gland: 0.68 Gy
  Absorbed dose small intestine: 1.21 Gy
  Absorbed dose spleen: 0.72 Gy
  Absorbed dose stomach wall: 1.50 Gy
  Absorbed dose testes: 0.04 Gy
  Absorbed dose total body: 0.47 Gy
  Absorbed dose urinary bladder: 0.04 Gy
male, 1× 120 MBq/1200 pmol
  Absorbed dose adrenal glands: 0.66 Gy
  Absorbed dose brain: 0.15 Gy
  Absorbed dose colon wall: 0.93 Gy
  Absorbed dose heart wall: 0.68 Gy
  Absorbed dose kidneys: 3.21 Gy
  Absorbed dose liver: 5.61 Gy
  Absorbed dose lungs: 3.91 Gy
  Absorbed dose mammary fat pad: 0.49 Gy
  Absorbed dose osteogenic cells: 0.12 Gy
  Absorbed dose pancreas: 1.54 Gy
  Absorbed dose prostate gland: 0.37 Gy
  Absorbed dose small intestine: 0.94 Gy
  Absorbed dose spleen: 1.35 Gy
  Absorbed dose stomach wall: 1.38 Gy
  Absorbed dose testes: 0.08 Gy
  Absorbed dose total body: 0.66 Gy
  Absorbed dose urinary bladder: 0.08 Gy
[2]
  Absorbed dose adrenal glands: 1.74 Gy
  Absorbed dose brain: 0.15 Gy
  Absorbed dose colon wall: 2.43 Gy
  Absorbed dose heart wall: 0.75 Gy
  Absorbed dose kidneys: 6.00 Gy
  Absorbed dose liver: 6.33 Gy
  Absorbed dose lungs: 1.05 Gy
  Absorbed dose mammary fat pad: 0.81 Gy
  Absorbed dose osteogenic cells: 0.09 Gy
  Absorbed dose pancreas: 6.69 Gy
  Absorbed dose prostate gland: 1.05 Gy
  Absorbed dose small intestine: 2.40 Gy
  Absorbed dose spleen: 1.50 Gy
  Absorbed dose stomach wall: 4.50 Gy
  Absorbed dose testes: 0.06 Gy
  Absorbed dose total body: 0.93 Gy
  Absorbed dose urinary bladder: 0.06 Gy
[3]
  Absorbed dose adrenal glands: 1.62 Gy
  Absorbed dose brain: 0.36 Gy
  Absorbed dose colon wall: 3.63 Gy
  Absorbed dose heart wall: 1.38 Gy
  Absorbed dose kidneys: 9.75 Gy
  Absorbed dose liver: 9.84 Gy
  Absorbed dose lungs: 2.61 Gy
  Absorbed dose mammary fat pad: 0.69 Gy
  Absorbed dose osteogenic cells: 0.18 Gy
  Absorbed dose pancreas: 6.93 Gy
  Absorbed dose prostate gland: 2.04 Gy
  Absorbed dose small intestine: 3.63 Gy
  Absorbed dose spleen: 2.16 Gy
  Absorbed dose stomach wall: 4.50 Gy
  Absorbed dose testes: 0.12 Gy
  Absorbed dose total body: 1.41 Gy
  Absorbed dose urinary bladder: 0.12 Gy
[4]
  Absorbed dose adrenal glands: 1.99 Gy
  Absorbed dose brain: 0.44 Gy
  Absorbed dose colon wall: 2.80 Gy
  Absorbed dose heart wall: 2.03 Gy
  Absorbed dose kidneys: 9.62 Gy
  Absorbed dose liver: 16.84 Gy
  Absorbed dose lungs: 11.72 Gy
  Absorbed dose mammary fat pad: 1.47 Gy
  Absorbed dose osteogenic cells: 0.37 Gy
  Absorbed dose pancreas: 4.61 Gy
  Absorbed dose prostate gland: 1.10 Gy
  Absorbed dose small intestine: 2.81 Gy
  Absorbed dose spleen: 4.05 Gy
  Absorbed dose stomach wall: 4.14 Gy
  Absorbed dose testes: 0.23 Gy
  Absorbed dose total body: 1.97 Gy
  Absorbed dose urinary bladder: 0.24 Gy
